Laboratory results published in publication PMC3638400 (Philosophical Transactions of the Royal Society B: …, 2013).

Experiments:
[1] = molecular target: desmin (assembled into filaments, or immobilised on a sensor chip) (not stated (chicken gizzard desmin or recombinant human desmin prepared)) (UniProt P17661); test: co-sedimentation; high-speed; filaments assembled at 0.2 mg ml^-1 with WT CRYAB at 1 : 1 molar ratio; 20 mM HEPES, 100 mM NaCl, 1 mM MgCl2, 1 mM DTT, pH 6.3; 23, 39 or 44°C
[2] = molecular target: T1, filaments of keratins 7 and 18 (human, UniProt P08729 1-469; P05783 1-430); test: co-sedimentation; filaments assembled with the sHSP (desmin : sHSP 1 : 1 molar ratio) at three temperatures (22, 37, 44°C named in the text); pellet and supernatant by SDS-PAGE, Coomassie Blue; conditions: both partners purified
T1 construct: keratin 7, recombinant human; keratin 18, recombinant human; In vitro assembled keratin filaments; also called keratin filaments
T1 sequence (looked up) 1: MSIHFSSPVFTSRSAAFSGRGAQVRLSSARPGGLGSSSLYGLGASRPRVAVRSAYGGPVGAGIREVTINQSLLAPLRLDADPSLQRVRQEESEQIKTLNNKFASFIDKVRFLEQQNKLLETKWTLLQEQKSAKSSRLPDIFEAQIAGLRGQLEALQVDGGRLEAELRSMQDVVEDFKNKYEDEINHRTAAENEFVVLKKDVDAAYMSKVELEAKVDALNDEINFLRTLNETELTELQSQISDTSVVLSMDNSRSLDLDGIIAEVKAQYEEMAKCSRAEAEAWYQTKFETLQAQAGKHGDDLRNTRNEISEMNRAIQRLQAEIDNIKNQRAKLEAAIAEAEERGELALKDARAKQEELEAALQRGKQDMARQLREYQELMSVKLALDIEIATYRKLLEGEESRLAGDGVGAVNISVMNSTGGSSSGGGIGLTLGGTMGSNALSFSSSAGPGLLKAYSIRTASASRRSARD
T1 sequence (looked up) 2: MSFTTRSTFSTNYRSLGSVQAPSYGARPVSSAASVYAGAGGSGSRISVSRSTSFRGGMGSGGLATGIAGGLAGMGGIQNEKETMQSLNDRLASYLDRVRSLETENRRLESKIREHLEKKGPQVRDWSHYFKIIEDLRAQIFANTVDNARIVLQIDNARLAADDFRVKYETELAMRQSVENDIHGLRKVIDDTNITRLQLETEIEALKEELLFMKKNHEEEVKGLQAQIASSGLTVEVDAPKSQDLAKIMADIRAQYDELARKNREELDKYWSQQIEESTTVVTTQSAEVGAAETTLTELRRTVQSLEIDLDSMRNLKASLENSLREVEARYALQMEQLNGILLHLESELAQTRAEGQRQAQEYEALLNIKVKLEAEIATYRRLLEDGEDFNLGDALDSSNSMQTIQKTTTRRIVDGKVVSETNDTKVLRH

[3] = molecular target: the molecule itself; test: SEC; Superformance column packed with Fractogel EMD BioSEC, calibrated with protein standards; 20 mM Tris-HCl pH 7.4, 100 mM NaCl, room temperature; self-association into oligomers
[4] = molecular target: T2, glial fibrillary acidic protein (GFAP) (human, UniProt P14136 1-432); test: SPR; Biacore 3000; desmin, GFAP and vimentin immobilised on a CM5 chip; CRYAB injected at 20 g ml^-1 (so in the source) for 7 min at 37°C, then washed 7 min; 10 mM HEPES pH 7.4, 0.15 M NaCl, 3.4 mM EDTA, 0.005% P20; double referencing; conditions: both partners purified
T2 construct: glial fibrillary acidic protein, recombinant human; Assembled into filaments for co-sedimentation and viscometry; immobilised on the chip for SPR; also called WT GFAP; GFAP filaments
T2 sequence (P14136 whole entry): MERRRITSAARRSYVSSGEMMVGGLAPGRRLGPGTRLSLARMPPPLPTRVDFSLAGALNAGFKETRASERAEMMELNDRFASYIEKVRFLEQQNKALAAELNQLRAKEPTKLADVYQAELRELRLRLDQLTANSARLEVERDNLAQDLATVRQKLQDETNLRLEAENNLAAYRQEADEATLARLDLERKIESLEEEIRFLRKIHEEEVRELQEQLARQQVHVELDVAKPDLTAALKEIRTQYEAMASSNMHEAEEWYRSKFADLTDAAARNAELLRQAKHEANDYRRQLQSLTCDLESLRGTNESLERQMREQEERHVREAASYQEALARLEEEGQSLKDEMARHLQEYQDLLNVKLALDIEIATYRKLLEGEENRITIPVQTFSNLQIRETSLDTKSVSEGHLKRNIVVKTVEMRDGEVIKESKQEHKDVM

wild-type αB-crystallin (CRYAB, HSPB5) (from UniProt P02511 1-175) (natural protein)
percent of the total CRYAB co-sedimented (pH 6.3, 39°C to 44°C) [1]: > 35 per cent

B1: wild-type αB-crystallin (CRYAB, HSPB5) (natural protein, human, UniProt P02511 1-175, looked up)
chain: MDIAIHHPWIRRPFFPFHSPSRLFDQFFGEHLLESDLFPTSTSLSPFYLRPPSFLRAPSWFDTGLSEMRLEKDRFSVNLDVKHFSPEELKVKVLGDVIEVHGKHEERQDEHGFISREFHRKYRIPADVDPLTITSSLSSDGVLTVNGPRKQVSGPERTIPITREEKPAVTAAPKK
notes: αB-crystallin (CRYAB, HSPB5), human; Polydisperse oligomer (apparent size about 520 kDa by SEC); also called WT CRYAB; WT αB-crystallin
binding result [2]: binds
binding result [3]: binds

B2: R120G αB-crystallin (R120G CRYAB) (natural protein, human, UniProt P02511 1-175, looked up)
chain: MDIAIHHPWIRRPFFPFHSPSRLFDQFFGEHLLESDLFPTSTSLSPFYLRPPSFLRAPSWFDTGLSEMRLEKDRFSVNLDVKHFSPEELKVKVLGDVIEVHGKHEERQDEHGFISREFHGKYRIPADVDPLTITSSLSSDGVLTVNGPRKQVSGPERTIPITREEKPAVTAAPKK
notes: αB-crystallin (CRYAB, HSPB5), human, with the disease-causing mutation R120G; Mutation found in a human family with desmin-related myopathy and cataract; Oligomer of apparent size 684 kDa by SEC; also called CRYAB R120G
binding result [2]: binds
binding result [3]: binds
binding result [4]: binds
